We go through three sequences from the Immune Epitope Database (IEDB).

Where only a bound is given, the exact number is not on record here.

Experiment [1] addresses HLA-A*01:01. Description: IEDB peptide-MHC binding, purified MHC/competitive/fluorescence; filed as Kd, often an IC50 or EC50 that approximates it; ≥ and ≤ were set here for values at or beyond the usual limits of such assays. The following applies: source organism: Human immunodeficiency virus type 1 (MAL ISOLATE).
The target of experiment [2] is HLA-A*30:01. The description is as above. The following applies: source organism: Human immunodeficiency virus type 1 (MAL ISOLATE).
Experiment [3] deals with HLA-B*08:01. Described as above. The following applies: source organism: Human immunodeficiency virus type 1 (MAL ISOLATE).
Experiment [4] concerns the target HLA-B*15:01. The description is as above. The following applies: source organism: Human immunodeficiency virus type 1 (MAL ISOLATE).
The target in experiment [5] is HLA-B*15:09. The experiment is described as above. The following applies: source organism: Human immunodeficiency virus type 1 (MAL ISOLATE).
In experiment [6] the target is HLA-B*15:17. The experiment is described as above. The following applies: source organism: Human immunodeficiency virus type 1 (MAL ISOLATE).
In experiment [7] the target is HLA-B*38:01. The description is as above. The following applies: source organism: Human immunodeficiency virus type 1 (MAL ISOLATE).
The target of experiment [8] is HLA-A*01:01. Description: IEDB peptide-MHC binding, purified MHC/direct/fluorescence; filed as Kd, often an IC50 or EC50 that approximates it; ≥ and ≤ were set here for values at or beyond the usual limits of such assays.
The target in experiment [9] is HLA-A*02:01. Described as above.
For experiment [10], the target named is HLA-A*03:01. Described as above.
Experiment [11] addresses HLA-A*11:01. Described as above.
The target in experiment [12] is HLA-A*26:01. The experiment is described as above. The following applies: source organism: Escherichia coli.
In experiment [13] the target is HLA-A*31:01. The description is as above.
The target of experiment [14] is HLA-A*69:01. The description is as above.
Experiment [15] has as its target HLA-B*07:02. Described as above.
Experiment [16] deals with HLA-B*08:01. The experiment is described as above. The following applies: source organism: Escherichia coli.
For experiment [17], the target named is HLA-B*15:01. The description is as above.
In experiment [18] the target is HLA-B*15:02. The description is as above. The following applies: source organism: Salmonella enterica subsp. enterica serovar Dublin.
Experiment [19] deals with HLA-B*27:05. The description is as above.
For experiment [20], the target named is HLA-B*35:01. Described as above. The following applies: source organism: Escherichia coli.
In experiment [21] the target is HLA-B*40:01. The experiment is described as above.
Experiment [22] addresses HLA-A*68:02. The experiment is described as above. The following applies: source organism: Escherichia coli O157:H7.
Experiment [23] concerns the target HLA-B*15:17. Described as above. The following applies: source organism: Escherichia coli O157:H7.
The target of experiment [24] is HLA-B*18:01. Described as above. The following applies: source organism: Escherichia coli O157:H7.
Experiment [25] deals with HLA-B*48:01. The description is as above. The following applies: source organism: Escherichia coli O157:H7.
Experiment [26] deals with HLA-B*57:01. The experiment is described as above. The following applies: source organism: Escherichia coli O157:H7.
The target of experiment [27] is HLA-B*58:01. Described as above. The following applies: source organism: Escherichia coli O157:H7.
Experiment [28] addresses HLA-A*32:07. Description: IEDB peptide-MHC binding, purified MHC/competitive/fluorescence; filed as Kd, often an IC50 or EC50 that approximates it; ≥ and ≤ were set here for values at or beyond the usual limits of such assays. The following applies: source organism: Escherichia coli O139:H28 str. E24377A.
The target of experiment [29] is HLA-B*15:42. Described as above. The following applies: source organism: Escherichia coli O139:H28 str. E24377A.
Experiment [30] addresses HLA-B*39:01. The experiment is described as above. The following applies: source organism: Escherichia coli O139:H28 str. E24377A.
Experiment [31] concerns the target HLA-B*40:13. The experiment is described as above. The following applies: source organism: Escherichia coli O139:H28 str. E24377A.
The target of experiment [32] is HLA-B*45:06. The description is as above. The following applies: source organism: Escherichia coli O139:H28 str. E24377A.
Experiment [33] has as its target HLA-B*83:01. The experiment is described as above. The following applies: source organism: Escherichia coli O139:H28 str. E24377A.
Setting [34] is: source organism: Escherichia coli.
[35] abbreviates: source organism: Escherichia coli O157:H7.

Take GSEEIKSLY: the Kd was 50.3 nM in [1]; not below 20000 nM in experiment [2]; not below 20000 nM in experiment [3]; 1070 nM in experiment [4]; not below 20000 nM in experiment [5]; 98.9 nM in experiment [6]. For the same sequence, the equilibrium dissociation constant (Kd) in [7] is not below 20000 nM.
Turning to SSMNSDAAY, the Kd in experiment [8] (setting [34]) was 171 nM; in experiment [9] (setting [34]), not below 20000 nM; in experiment [10] (setting [34]), not below 20000 nM; in experiment [11] (setting [34]) it was 144 nM; in [12], 27.6 nM; in [13] (setting [34]) it was not below 20000 nM. Moreover, the Kd is not below 20000 nM in experiment [14] (setting [34]); not below 20000 nM in experiment [15] (setting [34]); not below 20000 nM in [16]; 150 nM in [17] (setting [34]); 26 nM in experiment [18]; not below 20000 nM in [19] (setting [34]). The Kd was 11.5 nM in experiment [20] and not below 20000 nM in experiment [21] (setting [34]).
REWGWRIPF: the dissociation constant (Kd) in experiment [8] (setting [35]), in [9] (setting [35]), in [10] (setting [35]), in experiment [11] (setting [35]), in [13] (setting [35]) and in [22] was not below 20000 nM throughout. Moreover, the Kd in [14] (setting [35]) was not below 20000 nM; in experiment [15] (setting [35]), not below 20000 nM; in [17] (setting [35]) it was 45 nM; in [23], not below 20000 nM; in experiment [24] it was not above 1 nM; in [19] (setting [35]), 590 nM. Also, the Kd in experiment [21] (setting [35]) is not above 1 nM; in [25], 149 nM; in experiment [26], not below 20000 nM; in [27], not below 20000 nM; in experiment [28], 13.5 nM; in [29], not below 5000 nM. The Kd is 135 nM in [30], 61.1 nM in experiment [31], not below 5000 nM in [32] and not below 5000 nM in experiment [33].
